Laboratory results as given in US20250327097A1, “ORGANISMS PRODUCING LESS CROTONIC ACID” (Global Bioenergies, priority 2021, published 2025).
Numbering of substitutions follows the chain as printed. Names may count otherwise.

B1: N287Q-N388M-K394R-C430N-L432F-L434W-S436N (protein)
chain: MFLKSLREQINLLKRQGDLRIINRPVDSYLEAAAIIRRSTETKAPVPLMTNIKGYPGCSIVGGLAALSSNPEYPLSRVAMSLGLSTTASAQSIVQYLIDGLKKTPYLPVEIDSNSAPCKQNILRGEDASLAHFPIPQVHQHDGNRYVNTWGVFIVESPDGQWCNWSIQRVQYLNDRQMIALVFPSQHISDIWEEWVKIGKPMPYALVQGCEPIVPYIAGLPLLERNVNEAEYIGALYGKGIEVVKCETHDLRVPASSEVVIEGYFAITREGVEGPFGEFAGYIPNEQSLQPILSITAISWQDDPIWPVVAEGKPVDEYHTCSGIGDAAAIQNVLLTANLPVSFVWVPLYSACHLMIVSINRHWRQTHPDLTSEQLTKKVGDVIHQTRMSIKLPRIVVLDDDVDPADTESLLWALATRIHPERKRYFYESNIFPWLNCYSEEERHNRKGKRVIIDALLPENHGAISSFDYAYPDDIKQRVLMHWETDFSHD
B2: I35V-Q140L-I283T-N285P-N287T-Q290E-S322T-N388M-K394R-C430A-L432F-L434W-S436N-dG462 (protein)
chain: B1 chain with I35V, Q140L, I283T, N285P, Q287T, Q290E, S322T, N430A
B3: E224Q-I283T-N285P-N287T-Q290E-S322T-N388M-K394R-C430A-L432F-L434W-S436N-dG462 (protein)
chain: B1 chain with E224Q, I283T, N285P, Q287T, Q290E, S322T, N430A
B4: I283T-N285P-N287T-Q290E-S322T-N388M-K394R-R422D-C430A-L432F-L434W-S436N-dG462 (protein)
chain: B1 chain with I283T, N285P, Q287T, Q290E, S322T, R422D, N430A
B5: I283T-N285P-N287T-L289R-Q290E-S322T-N388M-K394R-C430A-L432F-L434W-S436N-dG462 (protein)
chain: B1 chain with I283T, N285P, Q287T, L289R, Q290E, S322T, N430A
B6: I283T-N285P-N287T-Q290E-S322T-R361K-N388M-K394R-C430A-L432F-L434W-S436N-dG462 (protein)
chain: B1 chain with I283T, N285P, Q287T, Q290E, S322T, R361K, N430A
B7: I283T-N285P-N287T-Q290E-S322T-N388M-K394R-C430A-L432F-L434W-S436N-H444F-dG462 (protein)
chain: B1 chain with I283T, N285P, Q287T, Q290E, S322T, N430A, H444F
B8: I283T-N285P-N287T-Q290E-S322T-N388M-K394R-C430A-L432F-L434W-S436N-H444R-dG462 (protein)
chain: B1 chain with I283T, N285P, Q287T, Q290E, S322T, N430A, H444R
B9: V227L-I283T-N285P-N287T-Q290E-S322T-N388M-K394R-C430A-L432F-L434W-S436N-dG462 (protein)
chain: B1 chain with V227L, I283T, N285P, Q287T, Q290E, S322T, N430A
B10: I283T-N285P-N287T-Q290E-S322T-N388S-K394R-C430A-L432F-L434W-S436N-dG462 (protein)
chain: B1 chain with I283T, N285P, Q287T, Q290E, S322T, M388S, N430A
B11: I283T-N285P-N287T-Q290E-S322T-Q365T-N388M-K394R-C430A-L432F-L434W-S436N-dG462 (protein)
chain: B1 chain with I283T, N285P, Q287T, Q290E, S322T, Q365T, N430A
B12: I283T-N285P-N287T-Q290E-S322T-M355C-N388M-K394R-C430A-L432F-L434W-S436N-dG462 (protein)
chain: B1 chain with I283T, N285P, Q287T, Q290E, S322T, M355C, N430A
B13: N287T-N388M-K394R-C430N-L432F-L434W-S436N (protein)
chain: B1 chain with Q287T
B14: I283T-N285P-N287T-Q290E-S322T-N388M-K394R-E421W-C430A-L432F-L434W-S436N-dG462 (protein)
chain: B1 chain with I283T, N285P, Q287T, Q290E, S322T, E421W, N430A
B15: I283T-N285P-N287T-Q290E-S322T-N388M-K394R-C430A-L432F-L434W-S436N-N460G-dG462 (protein)
chain: B1 chain with I283T, N285P, Q287T, Q290E, S322T, N430A, N460G
B16: I283T-N285P-N287T-Q290E-S322T-N388M-K394R-K423G-C430A-L432F-L434W-S436N-dG462 (protein)
chain: B1 chain with I283T, N285P, Q287T, Q290E, S322T, K423G, N430A
B17: E224P-I283T-N285P-N287T-Q290E-S322T-N388M-K394R-C430A-L432F-L434W-S436N-dG462 (protein)
chain: B1 chain with E224P, I283T, N285P, Q287T, Q290E, S322T, N430A
B18: I283T-N285P-N287T-Q290E-S322T-N388M-K394R-C430V-L432F-L434W-S436N-dG462 (protein)
chain: B1 chain with I283T, N285P, Q287T, Q290E, S322T, N430V
B19: I283T-N285P-N287T-L289C-Q290E-S322T-N388M-K394R-C430A-L432F-L434W-S436N-dG462 (protein)
chain: B1 chain with I283T, N285P, Q287T, L289C, Q290E, S322T, N430A
B20: I283T-N285P-N287T-Q290E-S322T-N388M-K394H-C430A-L432F-L434W-S436N-dG462 (protein)
chain: B1 chain with I283T, N285P, Q287T, Q290E, S322T, R394H, N430A
B21: N287V-N388M-K394R-C430N-L432F-L434W-S436N (protein)
chain: B1 chain with Q287V
B22: L222V-I283T-N285P-N287T-Q290E-S322T-N388M-K394R-C430A-L432F-L434W-S436N-dG462 (protein)
chain: B1 chain with L222V, I283T, N285P, Q287T, Q290E, S322T, N430A
B23: I283T-N285P-N287T-Q290E-S322T-N388M-K394R-C430A-L432F-L434W-S436N-dG462-A463F (protein)
chain: B1 chain with I283T, N285P, Q287T, Q290E, S322T, N430A, A463F
B24: I283T-N285P-N287T-Q290E-S322T-M355V-N388M-K394R-C430A-L432F-L434W-S436N-dG462 (protein)
chain: B1 chain with I283T, N285P, Q287T, Q290E, S322T, M355V, N430A
B25: I283T-N285P-N287T-Q290E-S322T-N388M-K394R-C430A-L432F-L434W-S436N-H444T-dG462 (protein)
chain: B1 chain with I283T, N285P, Q287T, Q290E, S322T, N430A, H444T
B26: I283T-N285P-N287T-Q290E-S322T-N388M-K394R-C430A-L432F-L434W-S436N-dG462-Y471F (protein)
chain: B1 chain with I283T, N285P, Q287T, Q290E, S322T, N430A, Y471F
B27: I283T-N285P-N287T-Q290E-S322T-N388M-K394R-C430A-L432F-L434W-S436N-dG462-A463V (protein)
chain: B1 chain with I283T, N285P, Q287T, Q290E, S322T, N430A, A463V
B28: I283T-N285P-E286A-N287T-Q290E-S322T-N388M-K394R-C430A-L432F-L434W-S436N-dG462 (protein)
chain: B1 chain with I283T, N285P, E286A, Q287T, Q290E, S322T, N430A
B29: N287R-N388M-K394R-C430N-L432F-L434W-S436N (protein)
chain: B1 chain with Q287R
B30: I283L-N285P-N287T-Q290E-S322T-N388M-K394R-C430A-L432F-L434W-S436N-dG462 (protein)
chain: B1 chain with I283L, N285P, Q287T, Q290E, S322T, N430A
B31: I283T-N285P-N287T-Q290E-S322T-N388M-K394R-C430A-L432F-L434W-S436N-dG462-A470S (protein)
chain: B1 chain with I283T, N285P, Q287T, Q290E, S322T, N430A, A470S
B32: I283T-N285P-N287T-Q290E-S322T-N388M-K394R-H419P-C430A-L432F-L434W-S436N-dG462 (protein)
chain: B1 chain with I283T, N285P, Q287T, Q290E, S322T, H419P, N430A
B33: I283T-N285P-N287T-Q290E-S322T-M355T-N388M-K394R-C430A-L432F-L434W-S436N-dG462 (protein)
chain: B1 chain with I283T, N285P, Q287T, Q290E, S322T, M355T, N430A
B34: I283T-N285P-N287T-L289W-Q290E-S322T-N388M-K394R-C430A-L432F-L434W-S436N-dG462 (protein)
chain: B1 chain with I283T, N285P, Q287T, L289W, Q290E, S322T, N430A

Tested on: 3-methylcrotonic acid
Assay type: biochemical, Yersinia frederiksenii
Design: key: “+” representing a low increase in activity; “++++” representing a high increase in activity

Row | Molecule | Activity relative to WT
1 | B1 | +
2 | B2 | ++++
3 | B3 | ++++
4 | B4 | ++++
5 | B5 | ++++
6 | B6 | ++++
7 | B7 | ++++
8 | B8 | ++++
9 | B9 | ++++
10 | B10 | ++++
11 | B11 | ++++
12 | B12 | ++++
13 | B13 | +
14 | B14 | ++++
15 | B15 | ++++
16 | B16 | ++++
17 | B17 | ++++

Row | Molecule | Activity relative to WT
18 | B18 | ++++
19 | B19 | ++++
20 | B20 | ++++
21 | B21 | +
22 | B22 | ++++
23 | B23 | ++++
24 | B24 | ++++
25 | B25 | ++++
26 | B26 | ++++
27 | B27 | ++++
28 | B28 | ++++
29 | B29 | +
30 | B30 | ++++
31 | B31 | ++++
32 | B32 | ++++
33 | B33 | ++++
34 | B34 | ++++
